# Test results: patent US20100196347A1, “BONE GRAFTS WITH REDUCED PROTEASE ACTIVITY AND METHODS OF SELECTION AND USE” (priority 2008, published 2010)
# Legend:
# [1] = Binding and release of PDGF from human bone graft (salt elution; ELISA / SEC); assay type: physicochemical
# Procedure: FIG. 1 summarizes an exemplary protocol for studying the binding and release of PDGF from bone graft. For some experiments, the amounts were scaled down two or ten times to preserve the bone graft materials. In particular, 100 μl of human bone graft (LifeNet, Inc.) was mixed with 100 μl of PDGF at a concentration of 0.3 mg/mL in 20 mM NaOAc, pH 6.0 for ten minutes. The bone graft consisted of dry particles. The bone graft was freeze-dried before being sold (referred to as freeze-dried bone allograft, or FDBA). Then, 200 μl of NaCl (at various concentrations) in 20 mM NaOAc, pH 6.0 or phosphate buffered saline (PBS) (without NaOAc) was added. The solution was then incubated for either 1 hour or 24 hours. PDGF in solution was separated from insoluble human bone graft by centrifugation at ˜2000×g for 5 minutes at 4° C., and then the amount of rhPDGF-BB released from the matrix was determined by colorimetric ELISA Quantikine assy (R & D Systems, Minneapolis, Minn.) using plates coated with the receptor to human PDGF-BB.
# In particular, PDGF (0.5 ml of 0.3 mg/ml) was incubated with the freeze-dried bone graft (˜0.5 ml) and mixed for 10 minutes, 60 minutes, or overnight at room temperature. Then 1 mL of 1 M NaCl was added as described above for FIG. 1. […] PDGF was separated from the bone graft by centrifugation at 15,334×g for 2 minutes and the supernatant containing PDGF was analyzed by SEC, RPHPLC, ELISA, and non-reducing SDS-PAGE. […] Released PDGF was measured using a standard ELISA assay. […] Briefly, a receptor for human PDGF-BB was coated onto a plate, then PDGF was bound and evaluated with a secondary antibody-HRP conjugate and the chromogen tetramethylbenzidine for detection. […] Alternatively, the concentrations of the rhPDGF-BB in supernatants were determined using the size exclusion HPLC (SEC) on TOSOH Biosep TSK-Gel, 7.8 mm×3 cm HPLC column and TOSOH Biosep TSK-Gel, 6.0 mm×4.0 cm precolumn (Tosoh Bioscience, San Francisco, Calif.) by integration of the elution profile of PDGF and using calibration at 5 different concentrations of standard PDGF as shown in FIG. 4C. […]
# MG-63 cells = assay: MG-63 cell-based bioassay of rhPDGF eluted from FDBA; details: eluted from FDBA with NaCl after ten minutes; data not shown
# [2] = Non-reducing SDS-PAGE of rhPDGF-BB eluted from human FDBA; assay type: physicochemical; details: data not shown
# Procedure: In particular, PDGF (0.5 ml of 0.3 mg/ml) was incubated with the freeze-dried bone graft (˜0.5 ml) and mixed for 10 minutes, 60 minutes, or overnight at room temperature. Then 1 mL of 1 M NaCl was added as described above for FIG. 1. The final NaCl concentration was 667 mM. PDGF was separated from the bone graft by centrifugation at 15,334×g for 2 minutes and the supernatant containing PDGF was analyzed by SEC, RPHPLC, ELISA, and non-reducing SDS-PAGE. […] Released PDGF was measured using a standard ELISA assay. The ELISA assay was performed using Quantikine® Human PDGF-BB Immunoassay from R&D Systems, Inc. according to the manufacturer's protocol (see, for example, world wide web at rndsystems.com/pdf/dbb00.pdf). Briefly, a receptor for human PDGF-BB was coated onto a plate, then PDGF was bound and evaluated with a secondary antibody-HRP conjugate and the chromogen tetramethylbenzidine for detection. […] Alternatively, the concentrations of the rhPDGF-BB in supernatants were determined using the size exclusion HPLC (SEC) on TOSOH Biosep TSK-Gel, 7.8 mm×3 cm HPLC column and TOSOH Biosep TSK-Gel, 6.0 mm×4.0 cm precolumn (Tosoh Bioscience, San Francisco, Calif.) by integration of the elution profile of PDGF and using calibration at 5 different concentrations of standard PDGF as shown in FIG. 4C.
# [3] = PDGF release from washed demineralized bone graft (ELISA); assay type: physicochemical
# Procedure: The washes were conducted as follows. The bone graft sample (−0.1 g) was placed in a small plastic tube and then either 1.0 ml of water, saline solution, or elution buffer was added to the sample. The mixture was allowed to sit at room temperature for 5 minutes with occasional gently mixing by hand. At the end of the 5 minutes, the fluid was pulled off the bone graft material using a pipet, and the remaining fluid was removed by compressing the material with a sterile cotton Q-tip applicator. Following this, a solution of 0.3 mg/ml rhPDGF-BB was added to the washed bone graft and samples were removed for quantification of PDGF by ELISA over 60 minutes.
substance,measurement,setting,value
rhPDGF-BB: recombinant human platelet-derived growth factor BB,PDGF release from freeze-dried bone graft with other compounds,[1]; MEM and acetic acid in place of NaCl,release of some PDGF
same,PDGF released from bone graft by salt incubation,"[1]; NaCl up to 1.5 M or PBS, 1 hour or 24 hours, ELISA",significant amount of PDGF was released
same,rhPDGF-BB bound to the bone graft matrix recovered from the bone graft,[1]; mixture of rhPDGF-BB and bone graft washed with a low ionic strength buffer,less than 10%
same,biopotency compared to a control sample of rhPDGF-BB,MG-63 cells,retained its biopotency
same,electrophoretic comparison with control rhPDGF-BB,[2],electrophoretically indistinguishable
same,amount of PDGF released from DM bone graft,[3]; bone graft washed 5 minutes in saline,More PDGF was released
same,amount of PDGF released from DM bone graft at the end of the 60 minute study,[3]; bone graft washed 5 minutes in sterile water,decrease
same,amount of PDGF released from DM bone graft,[3]; bone graft washed in elution buffer,somewhere in the middle between water and saline washes
